Results: patent US20200216824A1, “REGULATING PROTEIN SPONTANEOUS RUPTURES” (Bowling Green State University, priority 2019, published 2020)
Entries after “also recorded” stand apart in the source; their conditions may differ.

Key:
calmodulin (CaM) = calmodulin (CaM) (Homo sapiens, UniProt P0DP23); test: Effect of Ca2+ / EGTA on CaM rupture under AFM compressive force; settings: 1 mM CaCl2 for Ca2+; 2 mM EGTA buffer treatment
Experimental: (§1) In the experiment of compressive force manipulation on both Apo- and Ca^2+-ligated CaM, a modified AFM apparatus with an ultra-soft AFM tip was used to apply compressive force on a single protein molecule tethered to a glass coverslip through covalent bonding between the linker molecule and amino group of the protein, and its response was studied.
The same experiment was carried out on Ca^2+-ligated CaM. FIG. 14B represents the typical AFM compressive force curve on a Ca^2+-ligated single CaM molecule. […] Nevertheless, repeated rupture events on a single protein molecule have been noticed when a repeated force manipulation experiment on the same protein molecule has been carried out.
FIG. 29 illustrates the scheme of tethering single protein molecules on a cover glass surface. The cover glass (Gold Seal) was first cleaned and silanized with a mixture of (3-aminopropyl) trimethoxysilane, isobutyltrimethoxysilane with a ratio of 1:1000 dissolved in DMSO (10% v/v) for 12 hours, and then incubated in 10 nM dimethyl suberimidate in 50 mM PBS (pH 8.0) for 4 h. After washing with water and methanol, the glass slide was incubated in 10 nM CaM solutions (PBS, pH 7.4) for 4 h. […]
Typical compressive force curves were recorded under different conditions. […]

tau protein = tau protein (Homo sapiens, UniProt P10636); test: Effect of cations on tau protein rupture under AFM compressive force; settings: buffer solution pH 7.4
Text: This gives the indication of the presence of two forms of tau protein under different ionic environment. Under K^+environment tau protein exists as a relatively rigid protein structure which is more prone to collapse under compressive force build up. […] In addition, it was also investigated whether this kind of spontaneous and simultaneous rupture of multiple proteins under close proximity can develop an entangled protein third state, a fusion state, and can be a plausible mechanism for protein aggregation.
The protein molecules were tethered to the cover glass through covalent bonding between the amine group of the protein and the linker molecule attached to the coverglass surface. All the force curves were recorded under buffer solution (pH 7.4). When the AFM tip apex touches the surface of the protein molecule it starts loading force on it, once the force reaches a threshold value it can no longer withhold the force and collapses (FIG. 16A). This kind of behavior exists in globular proteins such as HPPK, calmodulin, and others.
Without wishing to be bound by theory, it is believed that there is a comprehensive model for two types of protein structure responses under compressive forces (FIG. 18C, green curve). One is a balloon-like type, reflected by the stress-strain curve in FIG. 18C, which is more rigid in nature and show rupture under compressive force. […]

[1] = AFM compressive force rupture of single CaM molecules (CaM, Apo-CaM, Ca2+-ligated CaM); type: physicochemical
Experimental: The mean rupture force from the distributions are 25 pN and 47 pN for CaM and HPPK molecules, respectively. ΔG was also calculated for CaM rupture, which is about 25.6±7.3 kBT using Bell-Evans Model. The characteristic behavior is due to different structural rigidity and a different vector orientation of the mechanical force inside different protein molecules.
The experiments for CaM protein were repeated under five different ALRs. FIGS. 11A-11E show the statistical distribution of the threshold force at five different ALRs and characterization of CaM rupture force and loading energy. FIGS. 11A-11E show the rupture threshold force distribution in different loading velocities. […] Loading velocity is 100 nm/s. The threshold force required for a single CaM protein molecule to rupture increases from 12 pN to 35 pN as the approaching velocity increases from 50 nm/s to 1000 nm/s, and the threshold force increases linearly along with the log of ALR (FIG. 8D).
as §1
From this distribution, the rupture force was calculated to be around 70 pN. This rupture force is dependent on the AFM tip approaching velocity. To calculate the actual threshold force loading distance, i.e., the amount of structural change of the targeted Apo-CaM molecule under the process of compressive force loading to the threshold value, the force curves were analyzed considering two factors. First, the force loading process causes the tip bending. Because of that, the distance traveled by the electropiezo scanner exceeds the distance traveled by the AFM tip apex. The amount of tip bending in the process of force loading can be easily taken in account considering the force constant of the cantilever (30 pN/nm). Second, the contribution of the hydration shell around a protein molecule (1-2 nm of width) was considered. Therefore, in the recorded force curves, force increases in a much slower rate at the beginning which corresponds to the AFM tip interaction with the outer solvation layer of the protein. In the latter part of the force curve, the force increases in a much faster manner as the AFM tip starts to interact with the protein surface directly. Without wishing to be bound by theory, it is believed that the contact occurs when the compressive force loaded by the AFM tip reaches a certain value to counter the water solvation layer. […]
It is the distance between the point where force loading starts and the point where protein rupture occurs. […] The loading energy was calculated using Eloading=∫F(l)dl, where l is the compressive force loading distance, and F(l) is the loading force. […] Under this approximation, distribution of the calculated threshold compressive force loading energy was plotted in FIG. 15D using Eloading=(F threshold/2)×lthreshold and the mean value was around 32 kBT; however, the energy can be as low as 10 kBT with significant probability, which is biologically accessible from the local thermal fluctuations, such as in living mammalian cells at 37° C.
The loading energy was calculated using Eloading=J F(l)dl. l is the compressive force loading distance, and F(l) is the loading force curve. […]

[2] = AFM-FRET compressive force rupture of single HPPK molecules; type: physicochemical
Text: 6-hydroxymethyl-7,8-dihydropterin pyrophosphokinase (HPPK) is a 158-residue monomer kinase enzyme protein which acts as a catalyst in the pyrophosphorylation reaction that drives the conversion of 6-hydroxymethyl-7,8-dihydropterin (HP) to 6-hydroxymethyl-7,8-dihydropterin pyrophosphate (HPPP) in the presence of ATP leading to the biosynthesis of folate cofactors. AFM was used to apply the compressive force on single protein molecules that are tethered on the glass cover slip surface at a controlled low density for single-molecule measurements. The enzyme HPPK was labeled with Cy3/Cy5 donor acceptor FRET pair on the amino acid residues 88 and 142, respectively (FIG. 2A), for probing the conformational changes of single protein under the compressive force.
The structural rupture of a single HPPK protein under compressive force applied by AFM tip was evaluated. […] When the AFM tip touches a single protein molecule, a compressive force is applied on the targeted protein, the force monotonically increases up to the level of about 60 pN (FIG. 1E), and then the force drops to zero abruptly.
As the piezo continues to approach toward the surface, the compressive force on the protein molecule increases; simultaneously, the protein starts to deform. When the force reaches a threshold value, the protein molecule suddenly ruptures, and the force on the tip releases to zero. As the AFM piezo continues to approach the glass coverslip surface, the tip on glass cannot move anymore, and as a result, piezo displacement causes tip bending. Therefore, from top to bottom, the cantilever bending distance=the piezo displacement D (nm); and the direct AFM instrumental electronic signal was measured and recorded for the loading force, F (mV). If the cantilever force constant k (pN/nm) is known, then, from the reading of measured f (mV), the protein rupture threshold force (pN)=[…] can be calculated.
To evaluate the relation between the compressive threshold force and the tip approaching velocity, the experiment was repeated under different approaching velocities (FIGS. 8-9). The threshold force for a single protein HPPK rupture increases as the apparent loading rate (ALR) by the AFM tip increases (FIG. 8B). ALR equals the approaching velocity times the force constant of AFM cantilever.
A two-state theoretical model, the Bell-Evans theory (eqn. 3), was used to analyze the linear dependence of rupture force with the logarithm of loading rate (FIG. 8B):
where F(r) is the most probable rupture force; kB, the Boltzmann's constant; T, temperature in Kelvin; Xβ is the distance between the bonded state and the transition state where the activation barrier is located; r, the loading rate; and ko the off-rate constant at zero force. The fitting gives two model parameters, kinetic off rate constant ko=12.2±4.5 s^−1 and the distance from the bound to transition state, Xβ=0.34±0.05 nm. Using ko, the barrier height of the transition state (ΔG) was also calculated using the following equation (eqn. 4), where h is the Planck's constant. ΔG of HPPK protein rupture is 27.0±9.8 kBT.
The cover glass (Gold Seal) was first cleaned and silanized with a mixture of (3-aminopropyl) trimethoxysilane and isobutyltrimethoxysilane with a ratio of 1:10000 dissolved in DMSO (10% v/v) for 12 hours, and then incubated in 10 nM dimethyl suberimidate in 50 mM PBS (pH 8.0) for 4 h. After washing by water and methanol, the glass slide was incubated in 10 nM HPPK solutions (PBS, pH 7.4) for 4 h. The possibility of two protein molecules locating underneath the AFM tip or in the same laser focus spot of around 300 nm diameters is almost zero. Cy3-Cy5 labeled HPPK molecules were tethered randomly on a cover glass surface and then incubated in PBS buffer (pH=7.4) in a homemade chamber immobilized on top of the microscope. To decrease photobleaching, added 0.8% D-glucose, 1 mg/mL glucose oxidase, 0.04 mg/mL catalase, and about 1 mM Trolox were added in the buffer as an oxygen scavenger. […]

Chain of tau protein (P10636 1-441 isoform P10636-8): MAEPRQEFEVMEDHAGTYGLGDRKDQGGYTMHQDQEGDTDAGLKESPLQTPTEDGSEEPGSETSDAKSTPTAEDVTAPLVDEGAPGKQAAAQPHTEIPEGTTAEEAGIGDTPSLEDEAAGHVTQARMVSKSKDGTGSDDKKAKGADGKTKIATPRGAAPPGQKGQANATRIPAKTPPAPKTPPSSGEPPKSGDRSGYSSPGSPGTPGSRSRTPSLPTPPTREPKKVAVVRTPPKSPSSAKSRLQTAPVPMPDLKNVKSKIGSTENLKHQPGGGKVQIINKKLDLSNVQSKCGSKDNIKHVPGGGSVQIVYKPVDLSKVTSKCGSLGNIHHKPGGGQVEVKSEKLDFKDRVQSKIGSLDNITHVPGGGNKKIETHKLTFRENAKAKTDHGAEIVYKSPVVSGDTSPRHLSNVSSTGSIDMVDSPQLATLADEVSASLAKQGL

Question: For `[Ca+2]` [Ca^2+], which “rupture event of CaM under compressive force in presence of / after treatment with the substance” value (calmodulin (CaM)) is on record?
Answer: does not go through a structural rupture; also recorded: No force drop was recorded

Question: For `O=C(O)CN(CCOCCOCCN(CC(=O)O)CC(=O)O)CC(=O)O` [EGTA, reference compound], which “rupture event of CaM under compressive force in presence of / after treatment with the substance” value (calmodulin (CaM)) is on record?
Answer: the rupture event recovers

Question: With `[K+]` [K^+, reference compound] as the molecule, how does the “rupture event of tau protein under compressive force in presence of the cation” value (tau protein) read?
Answer: the rupture event remains

Question: For `[Mg+2]` [Mg^2+], which “rupture event of tau protein under compressive force in presence of the cation” value (tau protein) is on record?
Answer: does not show such rupture events; also recorded: no rupture event was found; also recorded: No rupture event was observed

Question: What does the source list for calmodulin [CaM]?
Answer: rupture threshold force ([1]; 50 nm/s approaching velocity): 12 pN; loading energy ([1]; 100 nm/s loading velocity): 4-8 kBT; mean rupture force ([1]; 200 nm/s loading velocity): 25 pN; rupture threshold force ([1]; 1000 nm/s approaching velocity): 35 pN; ΔG of rupture ([1]; Bell-Evans Model): about 25.6±7.3 kBT

B1: 6-hydroxymethyl-7,8-dihydropterin pyrophosphokinase (protein, UniProt P26281 2-159, looked up)
2-amino-4-hydroxy-6-hydroxymet …: TVAYIAIGSNLASPLEQVNAALKALGDIPESHILTVSSFYRTPPLGPQDQPDYLNAAVALETSLAPEELLNHTQRIELQQGRVRKAERWGPRTLDLDIMLFGNEVINTERLTVPHYDMKNRGFMLWPLFEIAPELVFPDGEMLRQILHTRAFDKLNKW
notes: 158-residue monomer kinase enzyme protein
Question: Which “rupture threshold force (mean)” value ([2]; 200 nm/s approaching/loading velocity) does the source give for B1 here?
Answer: 47 pN

Question: And the “threshold compressive force loading energy” value ([2]; 200 nm/s loading velocity)?
Answer: around 30 kBT

Question: And the rupture threshold force ([2]; 2000 nm/s approaching velocity)?
Answer: 75 pN

Question: And the “distance from the bound to transition state Xβ” value ([2]; Bell-Evans fit)?
Answer: 0.34±0.05 nm

Question: What about the “kinetic off rate constant ko” value ([2]; Bell-Evans fit of rupture force vs loading rate) of the same molecule?
Answer: 12.2 ± 4.5 s⁻¹

Question: And the “AFM piezoelectric displacement from start of force loading to rupture” value ([2]; average, FIG. 10C)?
Answer: 5.0˜6.0 nm

Question: And the “barrier height of the transition state ΔG of protein rupture” value ([2]; calculated from ko)?
Answer: 27.0±9.8 kBT

Question: What about the “compressive force level reached before abrupt drop” value ([2]; single force curve, FIG. 1E) of the same molecule?
Answer: about 60 pN
